In patent publication US20250196025A1:

What was measured:
[1] = target: dAb (VL single domain antibody); assay: column dynamic binding capacity at 10% breakthrough, dAb, 6 min residence time, duplicate columns
[2] = target: dAb (VL single domain antibody); assay: column dynamic binding capacity at 10% breakthrough, dAb, 2.4 min residence time, duplicate columns
[3] = target: dAb (VL single domain antibody); assay: column dynamic binding capacity at 10% breakthrough, dAb, 10 min residence time, duplicate columns
[4] = target: Fab-fragment produced from Trastuzumab by papain cleavage; assay: column dynamic binding capacity at 10% breakthrough, Fab-fragment, 1 min residence time, duplicate columns
[5] = target: Herceptin (Trastuzumab); assay: column dynamic binding capacity at 10% breakthrough, Trastuzumab, 4 min residence time, at CIP cycle 35 (0.1 M NaOH)
[6] = target: dAb (VL single domain antibody); assay: column dynamic binding capacity at 10% breakthrough, dAb, 4 min residence time, duplicate columns
[7] = target: Fab-fragment produced from Trastuzumab by papain cleavage; assay: column dynamic binding capacity at 10% breakthrough, Fab-fragment, 6 min residence time; ligand density 11.0
[8] = target: Fab-fragment produced from Trastuzumab by papain cleavage; assay: column dynamic binding capacity at 10% breakthrough, Fab-fragment, 6 min residence time; ligand density 10.6
[9] = target: Adalimumab; assay: column dynamic binding capacity at 10% breakthrough, 4 min residence time; ligand density about 14.3 mg/ml
[10] = target: Adalimumab; assay: column dynamic binding capacity at 10% breakthrough, 6 min residence time; ligand density about 14.3 mg/ml
[11] = target: IgG (Gammanorm); assay: SPR (Biacore), variant amine-coupled to CM5 chip, Gammanorm as analyte, steady state affinity fit
[12] = target: IgG (Gammanorm); assay: SPR (Biacore), variant amine-coupled to CM5 chip, Gammanorm as analyte, 1:1 kinetic fit
[13] = target: Fab-fragment produced from Trastuzumab by papain cleavage; assay: column dynamic binding capacity at 10% breakthrough, Fab-fragment, 6 min residence time, duplicate columns
[14] = target: Fab-fragment produced from Trastuzumab by papain cleavage; assay: column dynamic binding capacity at 10% breakthrough, Fab-fragment, 10 min residence time, duplicate columns

Chain of Pentamer of SEQ ID NO:3 (ligand B2-1, pAM237) immobilized on cross-linked agarose beads (prototype separation matrix) (chain): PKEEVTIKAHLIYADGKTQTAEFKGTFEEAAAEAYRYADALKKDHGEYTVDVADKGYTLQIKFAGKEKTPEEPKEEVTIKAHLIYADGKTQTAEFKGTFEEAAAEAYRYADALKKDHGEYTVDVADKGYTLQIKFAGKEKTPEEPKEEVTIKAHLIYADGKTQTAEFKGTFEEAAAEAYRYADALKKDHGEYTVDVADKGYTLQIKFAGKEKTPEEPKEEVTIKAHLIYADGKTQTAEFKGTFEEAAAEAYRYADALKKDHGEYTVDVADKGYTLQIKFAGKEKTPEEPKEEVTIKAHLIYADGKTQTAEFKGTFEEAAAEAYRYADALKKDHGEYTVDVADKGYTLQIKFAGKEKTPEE

Row | Substance | Kd [11] [nM] | Kd [12] [nM] | also measured
1 | Capto™ L (Cytiva™), commercial Protein L matrix |  |  | DBC Qb10% [1]: 16.4; DBC Qb10% [2]: 15.8; DBC Qb10% [3]: 16.7; DBC Qb10% [4]: 16.9; DBC Qb10% [5]: 21; DBC Qb10% [6]: 16.2
2 | Pentamer of SEQ ID NO:3 (ligand B2-1, pAM237) immobilized on cross-linked agarose beads (prototype separation matrix) |  |  | DBC Qb10% 6 min RT [7]: 55.5; DBC Qb10% [4]: 48.1; DBC Qb10% 6 min RT [8]: 56.8; DBC Qb10% [9]: 57 mg/mL; DBC Qb10% [10]: 67 mg/mL
3 | Protein L construct pAM114 (wt B3 domain; N10, N45, N60) | 46 | 11 | 
4 | Protein L variant pAM236 (domain B1b-1; H10, H45, Q60) | 130 | 61 | 
5 | Protein L variant pAM240 (domain B5b-1; H10, H45, Q60) | 79 | 15 | 
6 | Protein L variant pAM241 (domain C1-1; H10, H45, Q60) | 187 | 87 | 
7 | Protein L variant pAM242 (domain C1b-1; H10, H45, Q60) | 116 | 49 | 
8 | Protein L variant pAM256 (domain C1b-2; H10, H45, Y60) | 134 | 59 | 
9 | TOYOPEARL® AF-r Protein L-650F (Tosoh) |  |  | DBC Qb10% [1]: 26.3; DBC Qb10% [2]: 23.7; DBC Qb10% [3]: 26; DBC Qb10% [4]: 43.7; DBC Qb10% [13]: 57.7; DBC Qb10% [6]: 25.2; DBC Qb10% [14]: 58.1

Now from value to substance, other results behind:

Row | Kd [11] [nM] | Kd [12] [nM] | Substance | also measured
10 | 99 | 40 | Protein L variant pAM250 (domain B1b-2; H10, H45, Y60) | 
11 | 41 | 7 | Protein L variant pAM254 (domain B5b-2; H10, H45, Y60) | 
12 | 324 | 146 | Protein L variant pAM255 (domain C1-2; H10, H45, Y60) | 
